To fix the notation:
B1: NECAB1 (parent)
chain: NLDTEELCEYFSQHLGEYENVLAA
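Note: lentivirally expressed fusions sorted by FACS into six bins by GFP to DsRed ratio, PSI derived from sequencing read proportions per bin multiplied by bin number.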

This data set covers variants of B1. Kind of data set: protein stability index of a GFP-peptide fusion (GPS, HEK-293T) (PSI 1-6); higher = more stable. Conditions: c terminus: a fixed tail appended.
For the variant NLDTEELCGYFSQHLGEYENVLAA [E9G], the protein stability index was 2.97.

As for NLDTEELCWYFSQHLGEYENVLAA [E9W], the protein stability index worked out at 1.77. The value for NLDTEELCVYFSQHLGEYENVLAA [E9V] was 1.93; that for NLDTEELCHYFSQHLGEYENVLAA [E9H] was 2.38; that for NLDTEELCFYFSQHLGEYENVLAA [E9F] was 1.8. On to NLDTEELCMYFSQHLGEYENVLAA [E9M], for which the protein stability index turned out to be 1.9.

Take NLDTEELCSYFSQHLGEYENVLAA [E9S]: the protein stability index is 2.04. For NLDTEELCLYFSQHLGEYENVLAA [E9L], the protein stability index turned out to be 1.91. The same measure for NLDTEELCQYFSQHLGEYENVLAA [E9Q]: 2.05; for NLDTEELCEYFSQHNGEYENVLAA [L15N]: 4.48. As to NLDTEELCEYFSQHMGEYENVLAA [L15M], the protein stability index turned out to be 3.07. The value for NLDTEELCEYFSQHKGEYENVLAA [L15K] was 4.02; that for NLDTEELCEYFSQHAGEYENVLAA [L15A] was 3.36. The value for NLDTEELCEYFSQHDGEYENVLAA [L15D] was 4.63; that for NLDTEELCEYFSQHIGEYENVLAA [L15I] was 1.97; that for NLDTEELCEYFSQHQGEYENVLAA [L15Q] was 4. The same measure for NLDTEELCEYFSQHYGEYENVLAA [L15Y]: 2.93.

With NLDTEEICEYFSQHLGEYENVLAA [L7I], the protein stability index turned out to be 3.01. The value for NLDTEEWCEYFSQHLGEYENVLAA [L7W] was 3.85. Consider NLDTEEQCEYFSQHLGEYENVLAA [L7Q], for which the protein stability index was 4.13. Turning to NLDTEEFCEYFSQHLGEYENVLAA [L7F], the protein stability index was determined as 3.55. The same measure for NLDTEECCEYFSQHLGEYENVLAA [L7C]: 3.85; for NLDTEEHCEYFSQHLGEYENVLAA [L7H]: 4.63. For the variant NLDTEESCEYFSQHLGEYENVLAA [L7S], the protein stability index was found to be 4.53.

For NLDTEEYCEYFSQHLGEYENVLAA [L7Y], the protein stability index turned out to be 3.94. NLDTEENCEYFSQHLGEYENVLAA [L7N]: the protein stability index amounted to 4.63. For NLDTEELCEYFSQHLGEYDNVLAA [E19D], the protein stability index worked out at 3.98.

Consider NLDTEELCEYFSQHLGEYWNVLAA [E19W], for which the protein stability index came to 1.82.

Regarding NLDTEELCEYFSQHLGEYYNVLAA [E19Y], the protein stability index amounted to 1.93. As for NLDTEELCEYFSQHLGEYHNVLAA [E19H], the protein stability index came to 1.97. Regarding NLDTEELCEYFSQHLGEYQNVLAA [E19Q], the protein stability index is 2.4.

Turning to NLDTEELCEYFSQHLGEYFNVLAA [E19F], the protein stability index stood at 1.97. For the variant NLDTEELCEYFSQHLGEYINVLAA [E19I], the protein stability index was 4.56. The value for NLDTEELCEYFSQHLGEYTNVLAA [E19T] was 2.07. The same measure for NLDTEELCEYFSQHLGEYMNVLAA [E19M]: 2.18; for NLDWEELCEYFSQHLGEYENVLAA [T4W]: 2.63. In the case of NLDNEELCEYFSQHLGEYENVLAA [T4N], the protein stability index was 3.62. The value for NLDGEELCEYFSQHLGEYENVLAA [T4G] was 3.91; that for NLDKEELCEYFSQHLGEYENVLAA [T4K] was 2.69; that for NLDVEELCEYFSQHLGEYENVLAA [T4V] was 2.12. The same measure for NLDDEELCEYFSQHLGEYENVLAA [T4D]: 4.33; for NLDCEELCEYFSQHLGEYENVLAA [T4C]: 2.64; for NLHTEELCEYFSQHLGEYENVLAA [D3H]: 2.11. On to NLPTEELCEYFSQHLGEYENVLAA [D3P], for which the protein stability index came out at 3.14. The value for NLNTEELCEYFSQHLGEYENVLAA [D3N] was 1.64; that for NLWTEELCEYFSQHLGEYENVLAA [D3W] was 2.12. The value for NLITEELCEYFSQHLGEYENVLAA [D3I] was 1.41; that for NLATEELCEYFSQHLGEYENVLAA [D3A] was 2.25; that for NLDTEELCEYFSQHLGMYENVLAA [E17M] was 2.17.

In the case of NLDTEELCEYFSQHLGKYENVLAA [E17K], the protein stability index is 1.34. The value for NLDTEELCEYFSQHLGGYENVLAA [E17G] was 2.81. As to NLDTEELCEYFSQHLGPYENVLAA [E17P], the protein stability index worked out at 2.64. For the variant NLDTEELCEYFSQHLGVYENVLAA [E17V], the protein stability index came to 2.33. The same measure for NLDTEELCEYFSQHLGCYENVLAA [E17C]: 2.31; for NLDTEELCEYFSQHLGSYENVLAA [E17S]: 2.99.

On to NLDTEELCEYFSQHLGLYENVLAA [E17L], for which the protein stability index was determined as 2.62.

Turning to NLDTEELCEYFSQHLGHYENVLAA [E17H], the protein stability index turned out to be 1.54. The same measure for NLDTEELCEYGSQHLGEYENVLAA [F11G]: 4.55; for NLDTEELCEYRSQHLGEYENVLAA [F11R]: 5.19.

In the case of NLDTEELCEYMSQHLGEYENVLAA [F11M], the protein stability index is 3.48.

Consider NLDTEELCEYWSQHLGEYENVLAA [F11W], for which the protein stability index was 3.85. Turning to NLDTEELCEYISQHLGEYENVLAA [F11I], the protein stability index amounted to 3.59.

Regarding NLDTEELCEYPSQHLGEYENVLAA [F11P], the protein stability index was determined as 5.13. On to NLDTEELCEYVSQHLGEYENVLAA [F11V], for which the protein stability index came to 3.9. Consider NLDTEELCEYASQHLGEYENVLAA [F11A], for which the protein stability index is 4.18. The value for NLDTEELCEYTSQHLGEYENVLAA [F11T] was 4.82; that for NLDTEELCEYFSQWLGEYENVLAA [H14W] was 1.84; that for NLDTEELCEYFSQVLGEYENVLAA [H14V] was 3.01. As to NLDTEELCEYFSQRLGEYENVLAA [H14R], the protein stability index amounted to 2.12.

As to NLDTEELCEYFSQGLGEYENVLAA [H14G], the protein stability index was found to be 3.81.

For the variant NLDTEELCEYFSQNLGEYENVLAA [H14N], the protein stability index worked out at 2.55. The same measure for NLDTEELCEYFSQKLGEYENVLAA [H14K]: 2.73; for NLDTEELCEYFTQHLGEYENVLAA [S12T]: 2.91; for NLDTEELCEYFQQHLGEYENVLAA [S12Q]: 2.55. For the variant NLDTEELCEYFNQHLGEYENVLAA [S12N], the protein stability index was 3.07. As for NLDTEELCEYFHQHLGEYENVLAA [S12H], the protein stability index was determined as 2.88. The same measure for NLDTEELCEYFWQHLGEYENVLAA [S12W]: 3.15; for NLDTEELCEYFYQHLGEYENVLAA [S12Y]: 2.91. As to NLDTEELCEYFFQHLGEYENVLAA [S12F], the protein stability index was found to be 3.17. The same measure for NLDTEELCEYFVQHLGEYENVLAA [S12V]: 2.28; for NLDTEELCEYFAQHLGEYENVLAA [S12A]: 2.59. Take NLDTEELCEYFPQHLGEYENVLAA [S12P]: the protein stability index came out at 4.53.

With NLDTEELCEYFDQHLGEYENVLAA [S12D], the protein stability index stood at 4. The same measure for NLDTEELCEYFLQHLGEYENVLAA [S12L]: 1.92; for NLDTEELCEYFEQHLGEYENVLAA [S12E]: 3.83; for NLDTEELCEYFKQHLGEYENVLAA [S12K]: 2.09. As for NLDTEELCEYFSQHLGEYEQVLAA [N20Q], the protein stability index was determined as 2.14. Turning to NLDTEELCEYFSQHLGEYEAVLAA [N20A], the protein stability index came to 2.03. Take NLDTEELCEYFSQHLGEYELVLAA [N20L]: the protein stability index came out at 1.23. For NLDTEELCEYFSQHLGEYEEVLAA [N20E], the protein stability index worked out at 2.74. The same measure for NLDTEELCEYFSQHLGEYEIVLAA [N20I]: 1.59. Regarding NLDTEELCEYFSQHLGEYEHVLAA [N20H], the protein stability index is 2.67. With NLDTEELCEYFSQHLGEYEMVLAA [N20M], the protein stability index was determined as 1.93. Regarding NLDTEELCEYFSQHLGEYEVVLAA [N20V], the protein stability index stood at 4.33.

(Values after the supplement of paper PMC10567573.)
